The target of the first assay is human neonatal Fc-receptor (FcRn) (human) (UniProt P55899). The assay can be described thus: FcRn affinity chromatography.
Sequence of human neonatal Fc-receptor (FcRn) (human) (P55899 24-297 limits assumed, chain 1 of 2): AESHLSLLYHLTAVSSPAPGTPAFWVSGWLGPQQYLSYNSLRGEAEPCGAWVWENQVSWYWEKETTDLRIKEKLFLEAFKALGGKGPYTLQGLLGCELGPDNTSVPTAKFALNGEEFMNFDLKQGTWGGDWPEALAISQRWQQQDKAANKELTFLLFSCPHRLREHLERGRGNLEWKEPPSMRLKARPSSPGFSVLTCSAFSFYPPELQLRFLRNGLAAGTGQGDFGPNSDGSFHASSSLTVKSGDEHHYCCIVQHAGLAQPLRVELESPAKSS
Sequence of human neonatal Fc-receptor (FcRn) (human) (P61769 21-119 limits assumed, chain 2 of 2, further chain): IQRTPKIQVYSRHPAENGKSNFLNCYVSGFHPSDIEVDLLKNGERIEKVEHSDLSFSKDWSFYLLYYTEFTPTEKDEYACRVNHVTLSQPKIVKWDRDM
The substance “molecule with IgG1 Fc-region L234A/L235A/P329G and Y436A (symmetric) (antibody)” yielded a FcRn-affinity column retention time of 41.3 min.

For a further assay the target is unchanged. The assay can be described thus: FcRn affinity chromatography, anti-HER2 antibody.
The substance “anti-HER2 antibody, D98E (symmetrically modified)” displayed a retention time of 46.2 min.

“anti-HER2 antibody, E258H (symmetrically modified)”: the retention time stood at 45.6 min.

In turn, “anti-HER2 antibody, K288E (symmetrically modified)” displayed a retention time of 45.2 min.

The substance “anti-HER2 antibody, K290H (symmetrically modified)” showed a retention time of 46.2 min.

The substance “anti-HER2 antibody, L309H (symmetrically modified)” returned a retention time of 45.5 min.

“anti-HER2 antibody, N434H (symmetrically modified)” showed a retention time of 52 min.

Consider “anti-HER2 antibody, R255D (symmetrically modified)”, for which the retention time turned out to be 41.4 min.

Another assay shares this target. The assay can be described thus: FcRn affinity chromatography, anti-VEGF/ANG-2 KiH antibody.
Substance “bispecific anti-VEGF/ANG-2 antibody (knobs-into-holes), FcRn affecting mutation: none (bispecific antibody)” displayed a retention time on FcRn affinity column of 51.8 min.

Turning to “bispecific anti-VEGF/ANG-2 antibody (knobs-into-holes), one chain with H310A (bispecific antibody)”, the retention time on FcRn affinity column was 48.4 min.

“bispecific anti-VEGF/ANG-2 antibody (knobs-into-holes), one chain with H310A/H433A/Y436A (bispecific antibody)”: the retention time on FcRn affinity column is 46.7 min.

As for “bispecific anti-VEGF/ANG-2 antibody (knobs-into-holes), one chain with H435A (bispecific antibody)”, the retention time on FcRn affinity column was found to be 48.8 min.

“bispecific anti-VEGF/ANG-2 antibody (knobs-into-holes), one chain with I253A (bispecific antibody)” returned a retention time on FcRn affinity column of 48.8 min.

As to “bispecific anti-VEGF/ANG-2 antibody (knobs-into-holes), one chain with L251D/L314D/L432D (bispecific antibody)”, the retention time on FcRn affinity column stood at 46.3 min.

Substance “bispecific anti-VEGF/ANG-2 antibody (knobs-into-holes), one chain with M252Y/S254T/T256E (bispecific antibody)” had a retention time on FcRn affinity column of 56.2 min.

For the next assay the target is unchanged. The assay can be described thus: FcRn affinity chromatography; the table in the text prints 51.8 min for 'none'.
Substance “bispecific anti-VEGF/ANG-2 antibody (knobs-into-holes), FcRn affecting mutation: none (bispecific antibody)” came in with an RT of 52.8 min.

These data come from patent US20260274936A1.
